Results on 1 molecule are retold here after patent US20210003577A1 (MAYO FOUNDATION FOR MEDICAL EDUCATION AND RESEARCH, published 2021).

The target in assay [1] is T1, endogenous TET3 in C4-2CON and C4-2ENZ-R cells (human, UniProt O43151 1-1795, limits assumed).
T1 construct: Endogenous protein in cell lysate for co-IP
Nature of the assay: co-immunoprecipitation of endogenous proteins, C4-2CON and C4-2ENZ-R cells.

Assay [2] concerns the target T2, endogenous TET1 in C4-2CON and C4-2ENZ-R cells (human, UniProt Q8NFU7 1-2136, limits assumed).
T2 construct: Endogenous protein in cell lysate for co-IP
The assay is described as above.

T1 sequence (O43151 whole entry): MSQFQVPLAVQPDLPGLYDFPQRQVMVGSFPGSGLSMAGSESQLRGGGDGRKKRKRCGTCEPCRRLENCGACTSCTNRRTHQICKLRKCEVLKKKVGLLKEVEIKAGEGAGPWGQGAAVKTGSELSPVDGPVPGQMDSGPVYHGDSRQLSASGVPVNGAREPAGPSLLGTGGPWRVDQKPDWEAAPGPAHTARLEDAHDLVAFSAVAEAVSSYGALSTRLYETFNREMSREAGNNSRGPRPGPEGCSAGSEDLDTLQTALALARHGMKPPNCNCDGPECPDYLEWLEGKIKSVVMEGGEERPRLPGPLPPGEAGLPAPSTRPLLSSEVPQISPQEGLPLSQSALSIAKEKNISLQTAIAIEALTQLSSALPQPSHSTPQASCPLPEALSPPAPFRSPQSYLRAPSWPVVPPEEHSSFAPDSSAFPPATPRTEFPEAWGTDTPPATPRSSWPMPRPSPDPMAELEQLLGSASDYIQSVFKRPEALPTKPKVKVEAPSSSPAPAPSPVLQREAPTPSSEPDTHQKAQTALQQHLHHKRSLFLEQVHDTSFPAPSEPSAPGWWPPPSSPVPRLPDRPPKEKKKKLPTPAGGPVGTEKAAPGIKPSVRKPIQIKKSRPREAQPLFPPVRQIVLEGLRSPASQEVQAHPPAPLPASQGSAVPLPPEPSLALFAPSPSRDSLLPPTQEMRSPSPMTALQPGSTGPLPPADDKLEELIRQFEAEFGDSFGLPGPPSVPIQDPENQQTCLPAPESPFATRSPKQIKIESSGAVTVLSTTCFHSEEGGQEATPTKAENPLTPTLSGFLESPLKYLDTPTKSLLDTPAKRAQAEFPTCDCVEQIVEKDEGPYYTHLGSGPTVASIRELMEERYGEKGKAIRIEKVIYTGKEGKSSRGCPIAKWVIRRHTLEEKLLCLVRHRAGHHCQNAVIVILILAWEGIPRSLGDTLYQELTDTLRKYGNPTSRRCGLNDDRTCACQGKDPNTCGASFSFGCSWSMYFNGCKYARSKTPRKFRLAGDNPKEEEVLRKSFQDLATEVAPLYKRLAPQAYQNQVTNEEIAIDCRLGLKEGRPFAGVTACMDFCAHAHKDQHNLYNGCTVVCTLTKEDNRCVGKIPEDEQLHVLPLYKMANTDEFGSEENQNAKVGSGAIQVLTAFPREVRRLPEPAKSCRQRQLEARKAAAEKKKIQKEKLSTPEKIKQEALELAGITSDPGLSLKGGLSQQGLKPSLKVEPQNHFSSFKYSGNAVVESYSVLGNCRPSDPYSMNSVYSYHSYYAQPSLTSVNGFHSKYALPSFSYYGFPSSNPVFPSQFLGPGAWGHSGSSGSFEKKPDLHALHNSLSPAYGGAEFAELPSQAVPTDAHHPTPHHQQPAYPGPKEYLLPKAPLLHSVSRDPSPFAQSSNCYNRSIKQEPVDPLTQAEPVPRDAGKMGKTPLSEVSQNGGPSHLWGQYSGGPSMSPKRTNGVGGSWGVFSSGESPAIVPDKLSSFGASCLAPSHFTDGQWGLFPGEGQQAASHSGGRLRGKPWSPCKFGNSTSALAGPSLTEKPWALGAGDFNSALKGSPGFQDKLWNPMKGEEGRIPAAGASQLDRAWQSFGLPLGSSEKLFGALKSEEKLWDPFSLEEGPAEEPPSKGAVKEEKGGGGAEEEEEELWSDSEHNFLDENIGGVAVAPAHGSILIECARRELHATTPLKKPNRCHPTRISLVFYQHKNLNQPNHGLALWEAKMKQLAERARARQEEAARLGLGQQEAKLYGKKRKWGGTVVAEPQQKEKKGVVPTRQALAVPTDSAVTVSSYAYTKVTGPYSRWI
T2 sequence (Q8NFU7 whole entry): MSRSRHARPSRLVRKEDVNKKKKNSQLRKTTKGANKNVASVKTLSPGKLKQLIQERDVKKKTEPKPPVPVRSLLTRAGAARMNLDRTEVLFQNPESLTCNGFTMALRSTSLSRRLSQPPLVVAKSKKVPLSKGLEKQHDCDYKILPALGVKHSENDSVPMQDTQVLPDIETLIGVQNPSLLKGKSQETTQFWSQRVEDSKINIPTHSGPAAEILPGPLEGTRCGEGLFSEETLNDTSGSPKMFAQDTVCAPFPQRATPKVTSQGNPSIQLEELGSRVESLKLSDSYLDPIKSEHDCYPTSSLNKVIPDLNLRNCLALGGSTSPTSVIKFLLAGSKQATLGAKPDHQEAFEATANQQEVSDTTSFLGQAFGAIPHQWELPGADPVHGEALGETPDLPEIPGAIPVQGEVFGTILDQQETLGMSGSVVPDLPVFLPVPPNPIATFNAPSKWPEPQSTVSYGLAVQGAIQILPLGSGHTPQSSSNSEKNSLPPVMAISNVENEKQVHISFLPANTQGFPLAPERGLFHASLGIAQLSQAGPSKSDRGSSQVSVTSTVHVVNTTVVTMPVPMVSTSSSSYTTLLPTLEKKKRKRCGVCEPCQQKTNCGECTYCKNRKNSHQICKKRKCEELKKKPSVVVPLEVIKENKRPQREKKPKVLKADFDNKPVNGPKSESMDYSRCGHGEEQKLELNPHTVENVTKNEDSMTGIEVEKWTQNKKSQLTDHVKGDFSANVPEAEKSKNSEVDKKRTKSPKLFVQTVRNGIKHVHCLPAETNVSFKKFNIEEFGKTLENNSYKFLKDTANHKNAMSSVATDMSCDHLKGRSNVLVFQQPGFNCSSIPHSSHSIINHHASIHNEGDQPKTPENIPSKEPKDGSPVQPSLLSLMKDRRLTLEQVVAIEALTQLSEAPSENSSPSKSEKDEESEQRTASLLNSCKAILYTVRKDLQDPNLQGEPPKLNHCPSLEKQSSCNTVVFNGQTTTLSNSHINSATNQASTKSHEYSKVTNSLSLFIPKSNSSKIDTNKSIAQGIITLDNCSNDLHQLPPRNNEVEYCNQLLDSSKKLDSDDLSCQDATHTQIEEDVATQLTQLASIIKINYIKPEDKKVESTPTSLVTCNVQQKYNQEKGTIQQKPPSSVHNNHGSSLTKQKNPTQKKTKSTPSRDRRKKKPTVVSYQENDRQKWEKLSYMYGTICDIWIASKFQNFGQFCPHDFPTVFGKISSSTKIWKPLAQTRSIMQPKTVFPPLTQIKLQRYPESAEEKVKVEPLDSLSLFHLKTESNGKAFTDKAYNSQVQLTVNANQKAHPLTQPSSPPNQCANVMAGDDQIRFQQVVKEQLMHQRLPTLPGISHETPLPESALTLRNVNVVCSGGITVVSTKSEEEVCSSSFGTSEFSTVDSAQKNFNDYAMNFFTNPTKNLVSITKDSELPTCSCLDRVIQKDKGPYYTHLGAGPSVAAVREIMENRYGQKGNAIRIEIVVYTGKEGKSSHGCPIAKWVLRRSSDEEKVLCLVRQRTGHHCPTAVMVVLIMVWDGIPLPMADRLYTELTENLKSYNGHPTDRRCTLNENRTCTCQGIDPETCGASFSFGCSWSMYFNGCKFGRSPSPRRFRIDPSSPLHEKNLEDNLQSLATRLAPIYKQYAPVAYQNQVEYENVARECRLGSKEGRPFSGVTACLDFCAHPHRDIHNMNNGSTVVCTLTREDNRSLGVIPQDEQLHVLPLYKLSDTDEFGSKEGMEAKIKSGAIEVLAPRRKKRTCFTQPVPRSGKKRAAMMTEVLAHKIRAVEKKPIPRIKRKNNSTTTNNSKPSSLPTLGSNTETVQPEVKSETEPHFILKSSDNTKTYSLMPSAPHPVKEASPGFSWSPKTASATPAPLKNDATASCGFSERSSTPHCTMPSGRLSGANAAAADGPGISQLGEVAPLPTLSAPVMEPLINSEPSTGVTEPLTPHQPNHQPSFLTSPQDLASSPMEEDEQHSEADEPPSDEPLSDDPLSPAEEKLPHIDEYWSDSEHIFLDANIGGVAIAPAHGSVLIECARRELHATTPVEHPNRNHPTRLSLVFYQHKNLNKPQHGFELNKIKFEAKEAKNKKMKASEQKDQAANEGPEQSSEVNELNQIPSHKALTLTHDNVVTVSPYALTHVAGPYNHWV

B1: endogenous AR in C4-2CON and C4-2ENZ-R cells (receptor, human, UniProt P10275 1-920, looked up)
chain: MEVQLGLGRVYPRPPSKTYRGAFQNLFQSVREVIQNPGPRHPEAASAAPPGASLLLLQQQQQQQQQQQQQQQQQQQQQQQETSPRQQQQQQGEDGSPQAHRRGPTGYLVLDEEQQPSQPQSALECHPERGCVPEPGAAVAASKGLPQQLPAPPDEDDSAAPSTLSLLGPTFPGLSSCSADLKDILSEASTMQLLQQQQQEAVSEGSSSGRAREASGAPTSSKDNYLGGTSTISDNAKELCKAVSVSMGLGVEALEHLSPGEQLRGDCMYAPLLGVPPAVRPTPCAPLAECKGSLLDDSAGKSTEDTAEYSPFKGGYTKGLEGESLGCSGSAAAGSSGTLELPSTLSLYKSGALDEAAAYQSRDYYNFPLALAGPPPPPPPPHPHARIKLENPLDYGSAWAAAAAQCRYGDLASLHGAGAAGPGSGSPSAAASSSWHTLFTAEEGQLYGPCGGGGGGGGGGGGGGGGGGGGGGGEAGAVAPYGYTRPPQGLAGQESDFTAPDVWYPGGMVSRVPYPSPTCVKSEMGPWMDSYSGPYGDMRLETARDHVLPIDYYFPPQKTCLICGDEASGCHYGALTCGSCKVFFKRAAEGKQKYLCASRNDCTIDKFRRKNCPSCRLRKCYEAGMTLGARKLKKLGNLKLQEEGEASSTTSPTEETTQKLTVSHIEGYECQPIFLNVLEAIEPGVVCAGHDNNQPDSFAALLSSLNELGERQLVHVVKWAKALPGFRNLHVDDQMAVIQYSWMGLMVFAMGWRSFTNVNSRMLYFAPDLVFNEYRMHKSRMYSQCVRMRHLSQEFGWLQITPQEFLCMKALLLFSIIPVDGLKNQKFFDELRMNYIKELDRIIACKRKNPTSCSRRFYQLTKLLDSVQPIARELHQFTFDLLIKSHMVSVDFPEMMAEIISVQVPKILSGKVKPIYFHTQ
notes: also called androgen receptor; ARFL
Turning to B1, the binding result in assay [1] and in assay [2] was “no binding” in each case.
